Test [1] addresses T1, MICA*004 on HCC1534 cells (human, UniProt Q29983 24-383). The test can be described thus: cell-based or functional assay.
The target in test [2] is T2, MICA*008 on MEL-JUSO cells (human, UniProt Q29983 24-317).
T2 chain: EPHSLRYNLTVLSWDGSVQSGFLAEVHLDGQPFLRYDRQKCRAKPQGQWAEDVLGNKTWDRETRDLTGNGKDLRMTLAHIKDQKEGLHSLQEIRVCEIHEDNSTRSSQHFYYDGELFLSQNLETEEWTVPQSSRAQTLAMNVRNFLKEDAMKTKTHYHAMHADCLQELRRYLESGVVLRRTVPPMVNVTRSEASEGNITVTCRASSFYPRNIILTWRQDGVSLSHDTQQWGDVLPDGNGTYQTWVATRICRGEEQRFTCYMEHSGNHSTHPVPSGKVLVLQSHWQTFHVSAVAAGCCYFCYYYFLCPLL
The test can be described thus: cell-based or functional assay.

Test [3] has as its target T3, MICB005.His (human MICB*005 alpha 3 domain, His tagged) (human).
T3 construct: also called huMICB*005 alpha 3-his
T3 chain: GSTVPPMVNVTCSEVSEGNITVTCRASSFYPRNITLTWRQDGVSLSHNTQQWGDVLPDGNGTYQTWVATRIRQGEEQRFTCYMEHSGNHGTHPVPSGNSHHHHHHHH
The test can be described thus: SPR, antibody captured. (In general: In SPR one partner is held on a chip, and binding of the other changes the refractive index at the surface.)

For test [4], the target named is T4, MICA008.His (human MICA*008 alpha 3 domain, His tagged) (human).
T4 construct: Also used for FPOP (expressed in CHO); also called huMICA*008 alpha 3-his; MICA*008 a3
T4 chain: T3 chain with C12R, V15A, T35I, N48D, R72C, Q73R, G90S
The test can be described thus: SPR, antibody captured.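 Also: SPR with antibody held by surface-bound anti-Fc while His-tagged alpha three domains flow over, Kd derived by fitting a one-to-one binding model to sensograms.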

For test [5], the target named is T5, MICA002.His (human MICA*002 alpha 3 domain, His tagged) (human).
T5 construct: also called huMICA*002 alpha 3-his
T5 chain: T3 chain with C12R, V15A, S28G, R32W, T37S, N48D, R72C, G90S
The test can be described thus: SPR, antibody captured.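 Also: SPR with antibody held by surface-bound anti-Fc while His-tagged alpha three domains flow over, Kd derived by fitting a one-to-one binding model to sensograms.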

Test [6] concerns the target T6, MICA004.His (human MICA*004 alpha 3 domain, His tagged) (human).
T6 construct: also called huMICA*004 alpha 3-his
T6 chain: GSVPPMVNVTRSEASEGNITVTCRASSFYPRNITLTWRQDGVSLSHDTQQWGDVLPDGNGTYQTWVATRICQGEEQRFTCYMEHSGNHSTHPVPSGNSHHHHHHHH
The test can be described thus: SPR, antibody captured.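 Also: SPR with antibody held by surface-bound anti-Fc while His-tagged alpha three domains flow over, Kd derived by fitting a one-to-one binding model to sensograms.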

Test [7] addresses T7, MICA.008.a3.T204-S297.E215N.mIgG2a.Glyco12 (human; mouse, UniProt Q29983 204-297, engineered N-linked glycosylation site E215N).
T7 construct: not shown: murine IgG2a Fc
T7 chain: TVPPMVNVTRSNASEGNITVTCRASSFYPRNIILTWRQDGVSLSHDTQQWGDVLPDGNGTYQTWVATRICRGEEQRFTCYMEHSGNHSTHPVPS
The test can be described thus: ELISA, coated variant.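 Also: ELISA with plates coated at 2 ug/ml with MICA*008 alpha 3 glycosylation variants as murine IgG2a Fc fusions, antibody binding detected by HRP anti-human IgG Fc and TMB absorbance.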 Background: An ELISA detects its analyte on a solid surface through an enzyme-linked reagent.

The target of test [8] is T8, MICA.008.a3.R202-S297.R202N mIgG2a.Glyco11 (human; mouse, UniProt Q29983 203-297, engineered N-linked glycosylation site R202N).
T8 construct: not shown: murine IgG2a Fc
T8 chain: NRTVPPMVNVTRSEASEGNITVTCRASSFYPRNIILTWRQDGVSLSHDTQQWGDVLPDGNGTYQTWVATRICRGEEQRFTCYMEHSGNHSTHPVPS
The test can be described thus: ELISA, coated variant.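 Also: ELISA with plates coated at 2 ug/ml with MICA*008 alpha 3 glycosylation variants as murine IgG2a Fc fusions, antibody binding detected by HRP anti-human IgG Fc and TMB absorbance.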

The target in test [9] is T9, MICA.008.a3.T204-S297.I236T.mIgG2a.Glyco13 (human; mouse, UniProt Q29983 204-297, engineered N-linked glycosylation site created by I236T).
T9 construct: not shown: murine IgG2a Fc
T9 chain: T7 chain with N12E, I33T
The test can be described thus: ELISA, coated variant.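 Also: ELISA with plates coated at 2 ug/ml with MICA*008 alpha 3 glycosylation variants as murine IgG2a Fc fusions, antibody binding detected by HRP anti-human IgG Fc and TMB absorbance.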

In test [10] the target is T10, MICA.008.a3.T204-S297.H248N.mIgG2a.Glyco15 (human; mouse, UniProt Q29983 204-297, engineered N-linked glycosylation site H248N).
T10 construct: not shown: murine IgG2a Fc
T10 chain: T7 chain with N12E, H45N
The test can be described thus: ELISA, coated variant.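 Also: ELISA with plates coated at 2 ug/ml with MICA*008 alpha 3 glycosylation variants as murine IgG2a Fc fusions, antibody binding detected by HRP anti-human IgG Fc and TMB absorbance.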

Test [11] concerns the target T11, MICA.008.a3.T204-S297.C-terminal insert of N298.G299.S300.mIgG2a.Glyco17 (human; mouse, UniProt Q29983 204-297, engineered N-linked glycosylation site at inserted N298).
T11 construct: not shown: murine IgG2a Fc
T11 chain: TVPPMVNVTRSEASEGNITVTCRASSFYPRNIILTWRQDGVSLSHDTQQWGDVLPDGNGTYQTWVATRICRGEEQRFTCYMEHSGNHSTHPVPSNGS
The test can be described thus: ELISA, coated variant.

In test [12] the target is T12, MICB*005 on HCC1534 cells (human, UniProt Q29980 23-383).
T12 sequence (looked up): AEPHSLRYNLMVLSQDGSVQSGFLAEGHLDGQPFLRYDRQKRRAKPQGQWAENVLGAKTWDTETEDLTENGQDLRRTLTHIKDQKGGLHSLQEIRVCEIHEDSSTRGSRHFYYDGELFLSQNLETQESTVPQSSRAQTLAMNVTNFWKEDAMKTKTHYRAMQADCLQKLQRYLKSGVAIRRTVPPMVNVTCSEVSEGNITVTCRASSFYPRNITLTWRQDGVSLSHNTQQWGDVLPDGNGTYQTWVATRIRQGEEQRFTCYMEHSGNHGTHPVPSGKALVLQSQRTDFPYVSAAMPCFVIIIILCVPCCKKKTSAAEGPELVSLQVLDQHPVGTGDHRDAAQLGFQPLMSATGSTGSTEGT
The test can be described thus: cell-based or functional assay.

Test [13] addresses T1, MICA*004 on HCC1534 cells. The test can be described thus: cell-based or functional assay. The source holds these as a separate data set.
In test [14] the target is T2, MICA*008 on MEL-JUSO cells. The test can be described thus: cell-based or functional assay.
For test [15], the target named is MICA*002 on cells (PANC-1; B16-MICA002) (human, UniProt Q29983 24-383). The test can be described thus: cell-based or functional assay.
For test [16], the target named is T12, MICB*005 on HCC1534 cells. The test can be described thus: cell-based or functional assay. This is another data set of the same source.

Data on 6 molecules can be found in US20200055939A1 (Genentech, published 2020).

Usually Kd stands for the equilibrium constant for the complex coming apart. A high value points to a looser complex.

Changes are numbered by the printed parent chain. Like-named read-outs stand apart in the source and are kept apart here.

B1: 6F8.7 (antibody, V domains shown)
VH: DVQLQGSGPGLVKPSQSLSLTCSVTGYSITNDYYWNWIRQFPGNKLEWMGFISFGGSNNYNPSLKNRISITRDTSKNQFFLKLSSVTTEDTATYYCARYDGRGAWFAYWAQGTLVTVSA
VL: DIQMTQSPASLSASVGETVTITCRASGNIHNYLAWYQQKQGKSPQLLVYDAITLADGVPSRFSGSGSGTQYSLKINSLQPEDFGNYYCQHFWSFPLTFGAGTKVEIK
notes: Mouse hybridoma antibody; constant regions differ by assay
For B1, the “% max inhibition of shedding” value in [1] was 70%; in test [2] it was 47.5%. In addition, the “EC50 of shedding inhibition” value was 0.251 µg/mL in [1] and 0.163 µg/mL in [2]. The Kd in test [3] was found to be 14.5 nM; in test [4], 8.4 nM; in test [5], 2.4 nM; in test [6], 6.2 nM. In addition, the binding result in test [7], in test [8], in [9], in test [10] and in [11] was “binds” in each case.

B2: 7D4.6 (antibody, V domains shown)
VH: DVQLQESGPGLVKPSQSLSLTCTVTGYSITSDYAWNWIRQFPRNKLEWMGYINYSGTTNYNPSLKSRISITRDTSKNQFFLQLISVTTEDTATYYCSYYRYDGAWFPYWGQGTLVTVSA
VL: B1 VL with D50N, T53M, G64A, N85S
notes: as for B1
Consider B2, for which the entries for the “% max inhibition of shedding” value in test [1] and in test [2] were 63% and 26%, respectively. In test [1], the “EC50 of shedding inhibition” value was found to be 0.185 µg/mL. Besides, the dissociation constant Kd in test [3] is 20 nM; in test [4], 10 nM; in [5] it was 3.5 nM; in test [6] it was 8.9 nM. The binding result in test [7], in test [8], in test [9], in [10] and in test [11] was “binds” throughout.

B3: 15F11 (antibody, V domains shown)
VH: EIQLQQSGPELVKPGASVRVSCKPSGYAFTSNNIYWVKQSRRKSLEWIGYIDPYIGRIIYNQQFKDKATLTVDKSSSTAYMHLNSLTSEDSAVYYCSRSGERSNFDYWGQGTTLTVSS
VL: EIVLTQSPTAMAASPGEKITITCSASSSISSNYLHWYQQKPGFSPKLLIYRTSNLASGVPARFSGSGSGTSYSLTIGPMEAEDVATYYCQQGGSLPLTFGAGTKVEIK
notes: Mouse variable domains; constant regions differ by assay
With B3, the “% max inhibition of shedding” value turned out to be 86% in test [1], 74% in [2] and 59% in test [12]. The “EC50 of shedding inhibition” value in test [1] was determined as 0.0485 µg/mL; in test [2], 0.0165 µg/mL; in test [12] it was 0.0736 µg/mL; in test [13] it was 0.0375 µg/mL; in [14] it was 0.0255 µg/mL; in [15] it was 0.0752 µg/mL. For the same molecule, the “EC50 of shedding inhibition” value in [16] came out at 0.102 µg/mL. The “Max % Inhibition of shedding” value in test [13] is 64%; in test [14], 73%; in test [15], 54%; in test [16], 60%. Further, the Kd in test [3] was 3.28 nM; in test [4], 1.02 nM; in [5], 3.05 nM; in test [6], 1.22 nM. Besides, the binding result in test [7], in [8], in test [9], in [10] and in [11] was “binds” in each case.

B4: 3C9.10 (antibody, V domains shown)
VH: QVQLKESGPGLVAPSQSLSITCTVSGFSLTGSGVNWVRQPPGKGLEWLGMIWGDGNTDYNSALKSRLSISKDNSKSQIFLKMNSLQTDDTARYYCARGAYYGKRWYFDVWGAGTTVTVSS
VL: DIQMTQTTSSLSASLGDRVTISCSASQGISNYLNWYQQKPDGTVKLLIYYTSSLHSGVPSRFSGSGSGTDYSLTISNLEPEDIATYYCQQYSKLPPTFGGGTKVEIK
notes: Mouse hybridoma antibody; constant regions differ by assay (hybridoma mouse IgG, recombinant human IgG1 or mouse IgG2a)
As for B4, in [1], the “% max inhibition of shedding” value was 24% and the “EC50 of shedding inhibition” value was 50 µg/mL. The “% max inhibition of shedding” value in test [2] is less than 10%. In addition, in test [3], the dissociation constant (Kd) turned out to be 45 nM.

B5: 9C9.5.6 (antibody, V domains shown)
VH: B4 VH with T30N, S32Q, N56S, K75R, I78V, Y100H
VL: B4 VL with G28N, S30N, D41H, H55P, T85S
notes: as for B1
B5: in test [1], the “% max inhibition of shedding” value turned out to be 44% and the “EC50 of shedding inhibition” value amounted to 3.18 µg/mL. Moreover, in test [2], the “% max inhibition of shedding” value was less than 10%. The same molecule gave a Kd in test [3] of 11 nM.

B6: 3E11 (antibody, V domains shown)
VH: EIQLQQSGPELVKPGASVKVSCTASGYAFTKYNIYWVKQSHGKSLEWIGYIDPYTGGTISNQKFTGRATLTVDKSSSTAYLHLNSLTSEDSAVYYCARPGSYWYFGVWGAGTTVTVSS
VL: DILMTQTPLSLPVSLGDQASISCRSSQSIVYTNGNTNLEWYLQKPGQSPKLLIYKVSNRFSGVPDRFSGSGSGTDFTLKISRVEAEDLGVYYCFQASYVPFTFGSGTKVEIK
notes: as for B1
B6: the “% max inhibition of shedding” value in [1] is 55%; in test [2], 70%. Moreover, the “EC50 of shedding inhibition” value came out at 0.309 µg/mL in test [1] and 0.265 µg/mL in test [2]. Besides, the dissociation constant (Kd) in [3] came out at 6.8 nM; in [4], 2.5 nM; in test [5], 7.7 nM; in [6], 5 nM. The binding result in test [7], in test [8], in test [9], in [10] and in [11] was “binds” throughout.
